According to paper PMC8633789, “Transmembrane topology and oligomeric nature of an astrocytic membrane protein, MLC1” (Open Biology, 2021):

Key:
CLC-ck2 = assay: SEC-MALS; SEC-MALS-RI, Superdex-200 Increase 10/300 GL, 1 mg/ml in 200 µl, 150 mM NaCl, 20 mM HEPES pH 7.5, 2 mM DDM
[1] = molecular target: codon-optimized chicken MLC1 with 6× His-tag (chicken); assay: cross-linking; glutaraldehyde (400-fold molar excess) on protein-detergent micelles (0.5-0.9 µg protein/µl), 1, 10 or 30 min at 23°C, SDS-PAGE; cross-linking largely inhibited with 2% SDS
[2] = molecular target: the molecule itself; assay: SEC-MALS; SEC-MALS-RI, Superdex-200 Increase 10/300 GL, 1 mg/ml in 200 µl, 150 mM NaCl, 20 mM HEPES pH 7.5, 2 mM DDM
[3] = molecular target: the molecule itself; assay: cross-linking; glutaraldehyde (400-fold molar excess) on protein-detergent micelles (0.5-0.9 µg protein/µl), 1, 10 or 30 min at 23°C, SDS-PAGE; cross-linking largely inhibited with 2% SDS
[4] = molecular target: the molecule itself; assay: single-molecule photobleaching (TIRFM); proteoliposomes (POPE:POPG 3:1, 0.1 mol% biotinyl CAP-PE, 0.4 µg protein/mg lipid) immobilised on a coated coverslip; distribution of GFP bleaching steps compared with binomial models, p = 0.8

## CLC-ck2 (natural protein)
CLC-ck2
  stoichiometry N: 2

## codon-optimized chicken MLC1 with 6× His-tag (natural protein)
[1]
  stoichiometry N: 3

B1: CLC-ec1 (natural protein, UniProt P37019 1-473, looked up)
chain: MKTDTPSLETPQAARLRRRQLIRQLLERDKTPLAILFMAAVVGTLVGLAAVAFDKGVAWLQNQRMGALVHTADNYPLLLTVAFLCSAVLAMFGYFLVRKYAPEAGGSGIPEIEGALEDQRPVRWWRVLPVKFFGGLGTLGGGMVLGREGPTVQIGGNIGRMVLDIFRLKGDEARHTLLATGAAAGLAAAFNAPLAGILFIIEEMRPQFRYTLISIKAVFIGVIMSTIMYRIFNHEVALIDVGKLSDAPLNTLWLYLILGIIFGIFGPIFNKWVLGMQDLLHRVHGGNITKWVLMGGAIGGLCGLLGFVAPATSGGGFNLIPIATAGNFSMGMLVFIFVARVITTLLCFSSGAPGGIFAPMLALGTVLGTAFGMVAVELFPQYHLEAGTFAIAGMGALLAASIRAPLTGIILVLEMTDNYQLILPMIITGLGATLLAQFTGGKPLYSAILARTLAKQEAEQLARSKAASASENT
notes: CLC-ec1, control membrane protein, approximately 100 kDa as a dimer; also called CLC-ec1 dimer
[2]
  stoichiometry N: 2

B2: 3× Flag-tagged human MLC1 (natural protein, UniProt Q15049-1 1-377, looked up)
chain: MTQEPFREELAYDRMPTLERGRQDPASYAPDAKPSDLQLSKRLPPCFSHKTWVFSVLMGSCLLVTSGFSLYLGNVFPAEMDYLRCAAGSCIPSAIVSFTVSRRNANVIPNFQILFVSTFAVTTTCLIWFGCKLVLNPSAININFNLILLLLLELLMAATVIIAARSSEEDCKKKKGSMSDSANILDEVPFPARVLKSYSVVEVIAGISAVLGGIIALNVDDSVSGPHLSVTFFWILVACFPSAIASHVAAECPSKCLVEVLIAISSLTSPLLFTASGYLSFSIMRIVEMFKDYPPAIKPSYDVLLLLLLLVLLLQAGLNTGTAIQCVRFKVSARLQGASWDTQNGPQERLAGEVARSPLKEFDKEKAWRAVVVQMAQ
notes: human MLC1 (megalencephalic leukoencephalopathy with subcortical cysts protein 1), cDNA NM_015166.3 from GenScript; The predicted mass of the tagged monomer (approx. 44 kDa) fits the whole protein; also called 3× Flag-hMLC1; hMLC1; not shown: 3× Flag, N-terminal, kept
[3]
  stoichiometry N: 3

B3: 3× Flag-tagged hMLC1-GFP (natural protein, human, UniProt Q15049-1 1-377, looked up)
chain: B2 chain
notes: human MLC1, cDNA NM_015166.3; probably as for 3× Flag-hMLC1 (HEK293S GnTI-); also called 3× F-hMLC1-G; 3× F-hMLC1-GFP; source: reconstituted into POPE:POPG proteoliposomes; not shown: 3× Flag, N-terminal, kept; GFP, C-terminal, kept
[4]
  stoichiometry N: 3
